The record followed here is patent US20180273642A1 (EMERGENT PRODUCT DEVELOPMENT SEATTLE, published 2018).

The target in test [1] is T1, CD28 on CD4+ T cells (human, UniProt P10747 19-220).
T1 construct: whole, on cells
As to the kind of experiment: binding to CD4+ T cells (FIG. 3; method not described).

The target in test [2] is T2, CD19 on cells (UniProt P15391 20-556, limits assumed).
T2 construct: whole, on cells
T2 sequence (looked up): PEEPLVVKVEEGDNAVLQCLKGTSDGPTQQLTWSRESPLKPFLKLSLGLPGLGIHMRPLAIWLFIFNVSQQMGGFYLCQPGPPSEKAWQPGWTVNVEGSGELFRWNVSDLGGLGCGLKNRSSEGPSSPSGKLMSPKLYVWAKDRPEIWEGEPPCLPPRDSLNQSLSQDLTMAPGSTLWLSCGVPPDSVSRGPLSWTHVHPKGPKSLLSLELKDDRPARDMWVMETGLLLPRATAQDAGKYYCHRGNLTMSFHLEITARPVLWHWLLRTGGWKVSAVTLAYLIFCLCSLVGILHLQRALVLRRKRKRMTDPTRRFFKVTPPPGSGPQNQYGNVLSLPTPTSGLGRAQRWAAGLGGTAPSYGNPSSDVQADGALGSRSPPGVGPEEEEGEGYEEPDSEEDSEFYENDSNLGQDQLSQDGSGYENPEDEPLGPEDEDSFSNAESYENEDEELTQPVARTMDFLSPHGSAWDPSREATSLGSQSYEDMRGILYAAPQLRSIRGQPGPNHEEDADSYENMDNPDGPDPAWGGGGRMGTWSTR
Nature of the test: flow cytometry on Rec1 (CD19+, CD20+) cells, 100 nM to 0.1 nM, goat anti-human IgG-FITC. The source says: (§1) T-cells were isolated from donor PBMCs using a Pan T-cell Isolation Kit II from Miltenyi Biotec (Bergisch Gladbach, Germany). Non T-cells were separated from PBMCs by being indirectly magnetically labeled with biotin-conjugated monoclonal antibodies and anti-biotin magnetic microbeads. These cells were then depleted by retaining them in a column surrounded by a magnetic field. The T-cells were not retained in the column and were collected in the flow through.
(§2) The cells were washed three times and then incubated with goat anti-human IgG-FITC (1:200 dilution) for another 30 minutes at 4° C. The cells were then washed again three times, fixed in 1% paraformaldehyde and read on a FACS-Calibur instrument.

The target in test [3] is T3, CD20 on cells (UniProt P11836 1-297, limits assumed).
T3 construct: whole, on cells
T3 sequence (looked up): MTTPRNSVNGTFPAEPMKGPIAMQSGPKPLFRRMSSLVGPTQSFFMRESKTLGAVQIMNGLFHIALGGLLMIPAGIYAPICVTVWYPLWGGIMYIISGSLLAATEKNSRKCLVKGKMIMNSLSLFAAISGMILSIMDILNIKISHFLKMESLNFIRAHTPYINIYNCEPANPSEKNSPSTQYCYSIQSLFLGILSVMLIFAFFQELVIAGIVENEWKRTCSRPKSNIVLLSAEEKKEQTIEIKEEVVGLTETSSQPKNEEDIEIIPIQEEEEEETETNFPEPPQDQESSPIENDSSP
The description is as above.
Description: as §1, §2

B1: 2E12 (anti-CD28) scFv (scFv)
scFv: QVQLKESGPGSVAPSQSLSITCTVSGFSLTGYGVNWVRQPPGKGLEWLGMIWGDGSTDYNSALKSRLSITKDNSKSQVFLKMNSLQTDDTARYYCARDGYSNFHYYVMDYWGQGTSVTVSSGGGGSGGGGSGGGGSGGGGSDIVLTQSPASLAVSLGQRATISCRASESVEYYVTSLMQWYQQKPGQPPKLLISAASNVESGVPARFSGSGSGTDFSLNIHPVEEDDIAMYFCQQSRKVPWTFGGGTKLEIK
notes: also called 2E12 scFv
B1: the binding result in test [1] is given as “binds”.

B2: bispecific polypeptide heterodimer TSC020 (anti-CD19 and anti-CD3) (bispecific antibody)
chain 1: DIVLTQSPASLAVSLGQRATISCKASQSVDYDGDSYLNWYQQIPGQPPKLLIYDASNLVSGIPPRFSGSGSGTDFTLNIHPVEKVDAATYHCQQSTEDPWTFGGGTKLEIKGGGGSGGGGSGGGGASQVQLQQSGAELVRPGSSVKISCKASGYAFSSYWMNWVKQRPGQGLEWIGQIWPGDGDTNYNGKFKGKATLTADESSSTAYMQLSSLASEDSAVYFCARRETTTVGRYYYAMDYWGQGTSVTVSSSEPKSSDKTHTCPPCPSGAPELLGGPSVFLFPPKPKDTLMISRTPEVTCVVVDVSHEDPEVKFNWYVDGVEVHNAKTKPREEQYNSTYRVVSVLTVLHQDWLNGKEYKCKVSNKALPAPIEKTISKAKGQPREPQVYTLPPSRDELTKNQVSLTCLVKGFYPSDIAVEWESNGQPENNYKTTPPVLDSDGSFFLYSKLTVDKSRWQQGNVFSCSVMHEALHNHYTQKSLSLSPGKSRASTKGPSVFPLAPSSKSTSGGTAALGCLVKDYFPEPVTVSWNSGALTSGVHTFPAVLQSSGLYSLSSVVTVPSSSLGTQTYICNVNHKPSNTKVDKKV
chain 2: EVQLQQSGPELVKPGASMKISCKASGYSFTGYIVNWLKQSHGKNLEWIGLINPYKGLTTYNQKFKGKATLTVDKSSSTAYMELLSLTSEDSAVYYCARSGYYGDSDWYFDVWGAGTTVTVSSGGGGSGGGGSGGGGSAQDIQMTQTTSSLSASLGDRVTISCRASQDIRNYLNWYQQKPDGTVKLLIYYTSRLHSGVPSRFSGSGSGTDYSLTIANLQPEDIATYFCQQGNTLPWTFGGGTKLVTKRSSEPKSSDKTHTCPPCPSGAPELLGGPSVFLFPPKPKDTLMISRTPEVTCVVVDVSHEDPEVKFNWYVDGVEVHNAKTKPREEQYNSTYRVVSVLTVLHQDWLNGKEYKCKVSNKALPAPIEKTISKAKGQPREPQVYTLPPSRDELTKNQVSLTCLVKGFYPSDIAVEWESNGQPENNYKTTPPVLDSDGSFFLYSKLTVDKSRWQQGNVFSCSVMHEALHNHYTQKSLSLSPGKSRTVAAPSVFIFPPSDEQLKSGTASVVCLLNYFYPREAKVQWKVDNALQSGNSQESATEQDSKDSTYSLSSELTLSKADYEKHKVYACEVTHQGLSSPVTKSFNRGE
notes: HD37 (anti-CD19) scFv and G19-4 (anti-CD3) scFv; also called CD19×αCD3; TSC001 + TSC019
Take B2: the binding result in test [2] was “binds”.

B3: bispecific (CD20, CD3) polypeptide heterodimer TSC021 (bispecific antibody)
chain 1: QIVLSQSPAILSASPGEKVTMTCRASSSVSYMHWYQQKPGSSPKPWIYAPSNLASGVPARFSGSGSGTSYSLTISRVEAEDAATYYCQQWSFNPPTFGAGTKLELKDGGGSGGGGSGGGGASQAYLQQSGAESVRPGASVKMSCKASGYTFTSYNMHWVKQTPRQGLEWIGAIYPGNGDTSYNQKFKGKATLTVDKSSSTAYMQLSSLTSEDSAVYFCARVVYYSNSYWYFDVWGTGTTVTVSSSEPKSSDKTHTCPPCPSGAPELLGGPSVFLFPPKPKDTLMISRTPEVTCVVVDVSHEDPEVKFNWYVDGVEVHNAKTKPREEQYNSTYRVVSVLTVLHQDWLNGKEYKCKVSNKALPAPIEKTISKAKGQPREPQVYTLPPSRDELTKNQVSLTCLVKGFYPSDIAVEWESNGQPENNYKTTPPVLDSDGSFFLYSKLTVDKSRWQQGNVFSCSVMHEALHNHYTQKSLSLSPGKSRASTKGPSVFPLAPSSKSTSGGTAALGCLVKDYFPEPVTVSWNSGALTSGVHTFPAVLQSSGLYSLSSVVTVPSSSLGTQTYICNVNHKPSNTKVDKKV
chain 2: EVQLQQSGPELVKPGASMKISCKASGYSFTGYIVNWLKQSHGKNLEWIGLINPYKGLTTYNQKFKGKATLTVDKSSSTAYMELLSLTSEDSAVYYCARSGYYGDSDWYFDVWGAGTTVTVSSGGGGSGGGGSGGGGSAQDIQMTQTTSSLSASLGDRVTISCRASQDIRNYLNWYQQKPDGTVKLLIYYTSRLHSGVPSRFSGSGSGTDYSLTIANLQPEDIATYFCQQGNTLPWTFGGGTKLVTKRSSEPKSSDKTHTCPPCPSGAPELLGGPSVFLFPPKPKDTLMISRTPEVTCVVVDVSHEDPEVKFNWYVDGVEVHNAKTKPREEQYNSTYRVVSVLTVLHQDWLNGKEYKCKVSNKALPAPIEKTISKAKGQPREPQVYTLPPSRDELTKNQVSLTCLVKGFYPSDIAVEWESNGQPENNYKTTPPVLDSDGSFFLYSKLTVDKSRWQQGNVFSCSVMHEALHNHYTQKSLSLSPGKSRTVAAPSVFIFPPSDEQLKSGTASVVCLLNYFYPREAKVQWKVDNALQSGNSQESATEQDSKDSTYSLSSELTLSKADYEKHKVYACEVTHQGLSSPVTKSFNRGE
notes: 2H7 (anti-CD20) scFv and G19-4 (anti-CD3) scFv; also called αCD20×αCD3; TSC002 + TSC019
B3: in test [3], the binding result is given as “binds”.

B4: bivalent anti-CD28 polypeptide heterodimer X0172 (Fc fusion)
chain 1: QVQLKESGPGSVAPSQSLSITCTVSGFSLTGYGVNWVRQPPGKGLEWLGMIWGDGSTDYNSALKSRLSITKDNSKSQVFLKMNSLQTDDTARYYCARDGYSNFHYYVMDYWGQGTSVTVSSGGGGSGGGGSGGGGSGGGGSDIVLTQSPASLAVSLGQRATISCRASESVEYYVTSLMQWYQQKPGQPPKLLISAASNVESGVPARFSGSGSGTDFSLNIHPVEEDDIAMYFCQQSRKVPWTFGGGTKLEIKSSSASTKGPSVFPLAPSSKSTSGGTAALGCLVKDYFPEPVTVSWNSGALTSGVHTFPAVLQSSGLYSLSSVVTVPSSSLGTQTYICNVNHKPSNTKVDKKVRTEPKSSDKTHTCPPCPSGAPELLGGPSVFLFPPKPKDTLMISRTPEVTCVVVDVSHEDPEVKFNWYVDGVEVHNAKTKPREEQYNSTYRVVSVLTVLHQDWLNGKEYKCKVSNKALPAPIEKTISKAKGQPREPQVYTLPPSRDELTKNQVSLTCLVKGFYPSDIAVEWESNGQPENNYKTTPPVLDSDGSFFLYSKLTVDKSRWQQGNVFSCSVMHEALHNHYTQKSLSLSPGKSRTVAAPSVFIFPPSDEQLKSGTASVVCLLNNFYPREAKVQWKVDNALQSGNSQESVTEQDSKDSTYSLSSTLTLSKADYEKHKVYACEVTHQGLSSPVTKSFNRGE
chain 2: TVAAPSVFIFPPSDEQLKSGTASVVCLLNNFYPREAKVQWKVDNALQSGNSQESVTEQDSKDSTYSLSSTLTLSKADYEKHKVYACEVTHQGLSSPVTKSFNRGERTEPKSSDKTHTCPPCPSGAPELLGGPSVFLFPPKPKDTLMISRTPEVTCVVVDVSHEDPEVKFNWYVDGVEVHNAKTKPREEQYNSTYRVVSVLTVLHQDWLNGKEYKCKVSNKALPAPIEKTISKAKGQPREPQVYTLPPSRDELTKNQVSLTCLVKGFYPSDIAVEWESNGQPENNYKTTPPVLDSDGSFFLYSKLTVDKSRWQQGNVFSCSVMHEALHNHYTQKSLSLSPGKSRASTKGPSVFPLAPSSKSTSGGTAALGCLVKDYFPEPVTVSWNSGALTSGVHTFPAVLQSSGLYSLSSVVTVPSSSLGTQTYICNVNHKPSNTKVDKKVNSLFNQEVQIPLTESYSPNSQVQLKESGPGSVAPSQSLSITCTVSGFSLTGYGVNWVRQPPGKGLEWLGMIWGDGSTDYNSALKSRLSITKDNSKSQVFLKMNSLQTDDTARYYCARDGYSNFHYYVMDYWGQGTSVTVSSGGGGSGGGGSGGGGSGGGGSDIVLTQSPASLAVSLGQRATISCRASESVEYYVTSLMQWYQQKPGQPPKLLISAASNVESGVPARFSGSGSGTDFSLNIHPVEEDDIAMYFCQQSRKVPWTFGGGTKLEIK
notes: also called X0130 + X0168
For the molecule B4, the binding result in test [1] is “binds”.

B5: monovalent anti-CD28 polypeptide heterodimer X0124 (Fc fusion)
chain 1: QVQLKESGPGSVAPSQSLSITCTVSGFSLTGYGVNWVRQPPGKGLEWLGMIWGDGSTDYNSALKSRLSITKDNSKSQVFLKMNSLQTDDTARYYCARDGYSNFHYYVMDYWGQGTSVTVSSGGGGSGGGGSGGGGSGGGGSDIVLTQSPASLAVSLGQRATISCRASESVEYYVTSLMQWYQQKPGQPPKLLISAASNVESGVPARFSGSGSGTDFSLNIHPVEEDDIAMYFCQQSRKVPWTFGGGTKLEIKSSSASTKGPSVFPLAPSSKSTSGGTAALGCLVKDYFPEPVTVSWNSGALTSGVHTFPAVLQSSGLYSLSSVVTVPSSSLGTQTYICNVNHKPSNTKVDKKVRTEPKSSDKTHTCPPCPSGAPELLGGPSVFLFPPKPKDTLMISRTPEVTCVVVDVSHEDPEVKFNWYVDGVEVHNAKTKPREEQYNSTYRVVSVLTVLHQDWLNGKEYKCKVSNKALPAPIEKTISKAKGQPREPQVYTLPPSRDELTKNQVSLTCLVKGFYPSDIAVEWESNGQPENNYKTTPPVLDSDGSFFLYSKLTVDKSRWQQGNVFSCSVMHEALHNHYTQKSLSLSPGK
chain 2: TVAAPSVFIFPPSDEQLKSGTASVVCLLNNFYPREAKVQWKVDNALQSGNSQESVTEQDSKDSTYSLSSTLTLSKADYEKHKVYACEVTHQGLSSPVTKSFNRGERTEPKSSDKTHTCPPCPSGAPELLGGPSVFLFPPKPKDTLMISRTPEVTCVVVDVSHEDPEVKFNWYVDGVEVHNAKTKPREEQYNSTYRVVSVLTVLHQDWLNGKEYKCKVSNKALPAPIEKTISKAKGQPREPQVYTLPPSRDELTKNQVSLTCLVKGFYPSDIAVEWESNGQPENNYKTTPPVLDSDGSFFLYSKLTVDKSRWQQGNVFSCSVMHEALHNHYTQKSLSLSPGK
notes: One 2E12 (anti-CD28) scFv only; also called X0112 + X0113
In the case of B5, the binding result in test [1] is “binds”.
